In paper PMC7917804:

Target: poly(A)-binding protein (PABP), P11940
Assay: co-immunoprecipitation with anti-FLAG antibody, Western blot quantified with ImageJ
Details: chain shown with the change, HeLa cells, parent: est. 1.0, read off a plot

poly(A)-binding protein (PABP), P11940, sequence (P11940 whole entry): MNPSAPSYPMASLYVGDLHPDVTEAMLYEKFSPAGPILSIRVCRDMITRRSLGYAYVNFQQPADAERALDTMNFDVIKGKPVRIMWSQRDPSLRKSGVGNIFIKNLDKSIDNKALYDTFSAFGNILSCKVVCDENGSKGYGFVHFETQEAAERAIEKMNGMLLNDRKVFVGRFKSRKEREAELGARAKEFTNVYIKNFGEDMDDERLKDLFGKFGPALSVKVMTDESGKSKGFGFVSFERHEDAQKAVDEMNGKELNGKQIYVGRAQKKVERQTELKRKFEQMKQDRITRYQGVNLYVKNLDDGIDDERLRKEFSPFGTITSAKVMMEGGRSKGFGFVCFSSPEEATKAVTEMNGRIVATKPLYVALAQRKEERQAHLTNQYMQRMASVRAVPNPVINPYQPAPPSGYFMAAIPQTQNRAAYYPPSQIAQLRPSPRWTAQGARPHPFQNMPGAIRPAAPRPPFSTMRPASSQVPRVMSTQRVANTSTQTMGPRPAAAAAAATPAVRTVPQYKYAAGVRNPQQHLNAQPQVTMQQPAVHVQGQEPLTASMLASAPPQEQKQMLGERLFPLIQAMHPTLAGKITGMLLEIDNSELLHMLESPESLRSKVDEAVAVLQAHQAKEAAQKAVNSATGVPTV

Binder | response (three independent experiments) | response (two independent experiments)
FLAG-HA-SBP (FHS)-tagged TNRC6A-SD-WT, Q8NDV7-2 S1616A; S1691A (protein) PLHQPAMKSFLDNVMPHTTPELQKGPSPINAFSNFPIGLNSNLNVNMDMNSIKEPQSRLRKWTTVDSISVNTSLDQNSSKHGAISSGFRLEESPFVPYDFMNSSTSPASPPGSIGDGWPRAKSPNGSSSVNWPPEFRPGEPWKGYPNIDPETDPYVTPGSVINNLSINTVREVDHLRDRNSGSSSSLNTTLPSTSAWSSIRASNYNVPLSSTAQSTSARNSDSKLTWSPGSVTNTSLAHELWKVPLPPKNITAPSRPPPGLTGQKPPLSTWDNSPLRIGGGWGNSDARYTPGSSWGESSSGRITNWLVLKNLTPQIDGSTLRTLCMQHGPLITFHLNLPHGNALVRYSSKEEVVKAQKSLHMCVLGNTTILAEFASEEEISRFFAQSQSLTPAPGWQSLGSSQSRLGSLDCSHSFSSRTDLNHWNGAGLSGTNCGDLHGTSLWGTPHYSTSLWGPPSSSDPRGISSPAPINAFLSVDHLGGGGESM | 0.81 | –
FLAG-HA-SBP (FHS)-tagged TNRC6A-SD-WT, Q8NDV7-2 S1332A; S1346A (protein) PLHQPAMKSFLDNVMPHTTPELQKGPSPINAFSNFPIGLNSNLNVNMDMNSIKEPQSRLRKWTTVDSISVNTSLDQNSSKHGAISSGFRLEESPFVPYDFMNSSTSPAAPPGSIGDGWPRAKAPNGSSSVNWPPEFRPGEPWKGYPNIDPETDPYVTPGSVINNLSINTVREVDHLRDRNSGSSSSLNTTLPSTSAWSSIRASNYNVPLSSTAQSTSARNSDSKLTWSPGSVTNTSLAHELWKVPLPPKNITAPSRPPPGLTGQKPPLSTWDNSPLRIGGGWGNSDARYTPGSSWGESSSGRITNWLVLKNLTPQIDGSTLRTLCMQHGPLITFHLNLPHGNALVRYSSKEEVVKAQKSLHMCVLGNTTILAEFASEEEISRFFAQSQSLTPSPGWQSLGSSQSRLGSLDCSHSFSSRTDLNHWNGAGLSGTNCGDLHGTSLWGTPHYSTSLWGPPSSSDPRGISSPSPINAFLSVDHLGGGGESM | 1.4 | –
FLAG-HA-SBP (FHS)-tagged full-length TNRC6A, wild type, Q8NDV7-2 S1332A; S1346A (protein) MDADSASSSESERNITIMASGNTGGEKDGLRNSTGLGSQNKFVVGSSSNNVGHGSSTGPWGFSHGAIISTCQVSVDAPESKSESSNNRMNAWGTVSSSSNGGLNPSTLNSASNHGAWPVLENNGLALKGPVGSGSSGINIQCSTIGQMPNNQSINSKVSGGSTHGTWGSLQETCESEVSGTQKVSFSGQPQNITTEMTGPNNTTNFMTSSLPNSGSVQNNELPSSNTGAWRVSTMNHPQMQAPSGMNGTSLSHLSNGESKSGGSYGTTWGAYGSNYSGDKCSGPNGQANGDTVNATLMQPGVNGPMGTNFQVNTNKGGGVWESGAANSQSTSWGSGNGANSGGSRRGWGTPAQNTGTNLPSVEWNKLPSNQHSNDSANGNGKTFTNGWKSTEEEDQGSATSQTNEQSSVWAKTGGTVESDGSTESTGRLEEKGTGESQSRDRRKIDQHTLLQSIVNRTDLDPRVLSNSGWGQTPIKQNTAWDTETSPRGERKTDNGTEAWGSSATQTFNSGACIDKTSPNGNDTSSVSGWGDPKPALRWGDSKGSNCQGGWEDDSAATGMVKSNQWGNCKEEKAAWNDSQKNKQGWGDGQKSSQGWSVSASDNWGETSRNNHWGEANKKSSSGGSDSDRSVSGWNELGKTSSFTWGNNINPNNSSGWDESSKPTPSQGWGDPPKSNQSLGWGDSSKPVSSPDWNKQQDIVGSWGIPPATGKPPGTGWLGGPIPAPAKEEEPTGWEEPSPESIRRKMEIDDGTSAWGDPSKYNYKNVNMWNKNVPNGNSRSDQQAQVHQLLTPASAISNKEASSGSGWGEPWGEPSTPATTVDNGTSAWGKPIDSGPSWGEPIAAASSTSTWGSSSVGPQALSKSGPKSMQDGWCGDDMPLPGNRPTGWEEEEDVEIGMWNSNSSQELNSSLNWPPYTKKMSSKGLSGKKRRRERGMMKGGNKQEEAWINPFVKQFSNISFSRDSPEENVQSNKMDLSGGMLQDKRMEIDKHSLNIGDYNRTVGKGPGSRPQISKESSMERNPYFDKDGIVADESQNMQFMSSQSMKLPPSNSALPNQALGSIAGLGMQNLNSVRQNGNPSMFGVGNTAAQPRGMQQPPAQPLSSSQPNLRAQVPPPLLSPQVPVSLLKYAPNNGGLNPLFGPQQVAMLNQLSQLNQLSQISQLQRLLAQQQRAQSQRSVPSGNRPQQDQQGRPLSVQQQMMQQSRQLDPNLLVKQQTPPSQQQPLHQPAMKSFLDNVMPHTTPELQKGPSPINAFSNFPIGLNSNLNVNMDMNSIKEPQSRLRKWTTVDSISVNTSLDQNSSKHGAISSGFRLEESPFVPYDFMNSSTSPAAPPGSIGDGWPRAKAPNGSSSVNWPPEFRPGEPWKGYPNIDPETDPYVTPGSVINNLSINTVREVDHLRDRNSGSSSSLNTTLPSTSAWSSIRASNYNVPLSSTAQSTSARNSDSKLTWSPGSVTNTSLAHELWKVPLPPKNITAPSRPPPGLTGQKPPLSTWDNSPLRIGGGWGNSDARYTPGSSWGESSSGRITNWLVLKNLTPQIDGSTLRTLCMQHGPLITFHLNLPHGNALVRYSSKEEVVKAQKSLHMCVLGNTTILAEFASEEEISRFFAQSQSLTPSPGWQSLGSSQSRLGSLDCSHSFSSRTDLNHWNGAGLSGTNCGDLHGTSLWGTPHYSTSLWGPPSSSDPRGISSPSPINAFLSVDHLGGGGESM | – | 1.7

Results, then the binder that gave them:

response (three independent experiments) | response (two independent experiments) | Binder
1.1 | – | FLAG-HA-SBP (FHS)-tagged TNRC6A-SD-WT, Q8NDV7-2 S1332D; S1346D (protein) PLHQPAMKSFLDNVMPHTTPELQKGPSPINAFSNFPIGLNSNLNVNMDMNSIKEPQSRLRKWTTVDSISVNTSLDQNSSKHGAISSGFRLEESPFVPYDFMNSSTSPADPPGSIGDGWPRAKDPNGSSSVNWPPEFRPGEPWKGYPNIDPETDPYVTPGSVINNLSINTVREVDHLRDRNSGSSSSLNTTLPSTSAWSSIRASNYNVPLSSTAQSTSARNSDSKLTWSPGSVTNTSLAHELWKVPLPPKNITAPSRPPPGLTGQKPPLSTWDNSPLRIGGGWGNSDARYTPGSSWGESSSGRITNWLVLKNLTPQIDGSTLRTLCMQHGPLITFHLNLPHGNALVRYSSKEEVVKAQKSLHMCVLGNTTILAEFASEEEISRFFAQSQSLTPSPGWQSLGSSQSRLGSLDCSHSFSSRTDLNHWNGAGLSGTNCGDLHGTSLWGTPHYSTSLWGPPSSSDPRGISSPSPINAFLSVDHLGGGGESM
– | 0.89 | FLAG-HA-SBP (FHS)-tagged full-length TNRC6A, wild type, Q8NDV7-2 S1616A; S1691A (protein) MDADSASSSESERNITIMASGNTGGEKDGLRNSTGLGSQNKFVVGSSSNNVGHGSSTGPWGFSHGAIISTCQVSVDAPESKSESSNNRMNAWGTVSSSSNGGLNPSTLNSASNHGAWPVLENNGLALKGPVGSGSSGINIQCSTIGQMPNNQSINSKVSGGSTHGTWGSLQETCESEVSGTQKVSFSGQPQNITTEMTGPNNTTNFMTSSLPNSGSVQNNELPSSNTGAWRVSTMNHPQMQAPSGMNGTSLSHLSNGESKSGGSYGTTWGAYGSNYSGDKCSGPNGQANGDTVNATLMQPGVNGPMGTNFQVNTNKGGGVWESGAANSQSTSWGSGNGANSGGSRRGWGTPAQNTGTNLPSVEWNKLPSNQHSNDSANGNGKTFTNGWKSTEEEDQGSATSQTNEQSSVWAKTGGTVESDGSTESTGRLEEKGTGESQSRDRRKIDQHTLLQSIVNRTDLDPRVLSNSGWGQTPIKQNTAWDTETSPRGERKTDNGTEAWGSSATQTFNSGACIDKTSPNGNDTSSVSGWGDPKPALRWGDSKGSNCQGGWEDDSAATGMVKSNQWGNCKEEKAAWNDSQKNKQGWGDGQKSSQGWSVSASDNWGETSRNNHWGEANKKSSSGGSDSDRSVSGWNELGKTSSFTWGNNINPNNSSGWDESSKPTPSQGWGDPPKSNQSLGWGDSSKPVSSPDWNKQQDIVGSWGIPPATGKPPGTGWLGGPIPAPAKEEEPTGWEEPSPESIRRKMEIDDGTSAWGDPSKYNYKNVNMWNKNVPNGNSRSDQQAQVHQLLTPASAISNKEASSGSGWGEPWGEPSTPATTVDNGTSAWGKPIDSGPSWGEPIAAASSTSTWGSSSVGPQALSKSGPKSMQDGWCGDDMPLPGNRPTGWEEEEDVEIGMWNSNSSQELNSSLNWPPYTKKMSSKGLSGKKRRRERGMMKGGNKQEEAWINPFVKQFSNISFSRDSPEENVQSNKMDLSGGMLQDKRMEIDKHSLNIGDYNRTVGKGPGSRPQISKESSMERNPYFDKDGIVADESQNMQFMSSQSMKLPPSNSALPNQALGSIAGLGMQNLNSVRQNGNPSMFGVGNTAAQPRGMQQPPAQPLSSSQPNLRAQVPPPLLSPQVPVSLLKYAPNNGGLNPLFGPQQVAMLNQLSQLNQLSQISQLQRLLAQQQRAQSQRSVPSGNRPQQDQQGRPLSVQQQMMQQSRQLDPNLLVKQQTPPSQQQPLHQPAMKSFLDNVMPHTTPELQKGPSPINAFSNFPIGLNSNLNVNMDMNSIKEPQSRLRKWTTVDSISVNTSLDQNSSKHGAISSGFRLEESPFVPYDFMNSSTSPASPPGSIGDGWPRAKSPNGSSSVNWPPEFRPGEPWKGYPNIDPETDPYVTPGSVINNLSINTVREVDHLRDRNSGSSSSLNTTLPSTSAWSSIRASNYNVPLSSTAQSTSARNSDSKLTWSPGSVTNTSLAHELWKVPLPPKNITAPSRPPPGLTGQKPPLSTWDNSPLRIGGGWGNSDARYTPGSSWGESSSGRITNWLVLKNLTPQIDGSTLRTLCMQHGPLITFHLNLPHGNALVRYSSKEEVVKAQKSLHMCVLGNTTILAEFASEEEISRFFAQSQSLTPAPGWQSLGSSQSRLGSLDCSHSFSSRTDLNHWNGAGLSGTNCGDLHGTSLWGTPHYSTSLWGPPSSSDPRGISSPAPINAFLSVDHLGGGGESM
